From PMC6901522

Experiments:
Assay in all cases: NMR
Conditions in all cases: 298 K, 150 mM NaCl, 10 mM acetic acid, 10 mM sodium phosphate, the pH 7.4 point was taken from a sample in TBS, folded, oxidised (C63-C92 disulfide), ligand-free monomer, 215-356 µM protein
[1] = biological target: His53 (UniProt position 53, VHSFSHNVGPG)
[2] = biological target: His87 (UniProt position 87, GTSEDHQHFTC)
[3] = biological target: His89 (UniProt position 89, SEDHQHFTCTI)
[4] = biological target: His49 (UniProt position 49, PGGVVHSFSHN)

Myeloid-derived growth factor (hMYDGF, C19orf10) (Homo sapiens)
pKa [1]: 5.4 | pKa [2]: 6.0 | pKa [3]: 6.8 | pKa [4]: 6.4
